Experimental data from publication doi:10.1101/2022.07.10.499479.
pKd: −log10 of the molar value. Read-outs that look alike come from different tables or passages of the source.

Experiments:
[1] = biological target: membrane-anchored iLID (improved Light Induced Dimerization protein with an N-terminal TatA-derived transmembrane helix) (Avena sativa); assay: 3D single-molecule tracking in live cells
[2] = biological target: membrane-anchored iLID (improved Light Induced Dimerization protein with an N-terminal TatA-derived transmembrane helix) (Avena sativa); assay: 3D single-molecule tracking in live cells; remark: listed apart in the source
[3] = biological target: membrane-anchored iLID (improved Light Induced Dimerization protein with an N-terminal TatA-derived transmembrane helix) (Avena sativa); assay: 3D single-molecule tracking in live cells; remark: listed apart in the source
[4] = biological target: membrane-anchored iLID (improved Light Induced Dimerization protein with an N-terminal TatA-derived transmembrane helix) (Avena sativa)
[5] = biological target: membrane-anchored iLID (improved Light Induced Dimerization protein with an N-terminal TatA-derived transmembrane helix) (Avena sativa); assay: 3D single-molecule tracking in live cells; remark: listed apart in the source
[6] = biological target: membrane-anchored iLID (improved Light Induced Dimerization protein with an N-terminal TatA-derived transmembrane helix) (Avena sativa); remark: listed apart in the source

Row | pKd [1] | fold increase in affinity upon 488 nm illumination against before [1] [fold] | fraction iLID-associated [1] [%] | fraction iLID-associated [2] [%] | fraction iLID-associated [3] [%] | median bound time t (bound) [4] [ms] | fraction slowly diffusing (iLID-associated) [1] [%] | fraction slowly diffusing (iLID-associated) [5] [%] | fraction of molecules at the membrane [6] [%] | Substance
1 | 6.29 | 2 | 45 | 48 | 31 | 300 |  |  |  | SspB_(micro)-Halo labelled with JFX549
2 |  |  | 7 |  | 6 | 175 |  |  |  | SspB_(milli)-Halo labelled with JFX549
3 |  |  |  |  |  | 350 | 48 | 56 | > 80 | SspB_(nano)-Halo labelled with JFX549
